# From patent US20210292396A1 (INTERNATIONAL AIDS VACCINE INITIATIVE, published 2021)
# Residue numbers refer to the chain shown, from its start.
# B1: PGT-121 (antibody, V domains shown)
# VH: QMQLQESGPGLVKPSETLSLTCSVSGASISDSYWSWIRRSPGKGLEWIGYVHKSGDTNYSPSLKSRVNLSLDTSKNQVSLSLVAATAADSGKYYCARTLHGRRIYGIVAFNEWFTYFYMDVWGNGTQVTVSS
# VL: SDISVAPGETARISCGEKSLGSRAVQWYQHRAGQAPSLIIYNNQDRPSGIPERFSGSPDSPFGTTATLTITSVEAGDEADYYCHIWDSRVPTKWVFGGGTTLTVLG
# B2: ePGT121.15.H1.L1 (antibody, V domains shown)
# VH: QMQLQESGPGLVKPGETLSLTCSVSGASISSSYWSWLRETPGKGLEWIGYTHHSGDTNYAPSLKSRVHLGLHPSKNQVSLSLTSVTAADTAVYYCARTLHGRRIYGVVAFNEWFTYFYWEVWGNGTQVTVSS
# VL: SDISVAPGETVRISCGGESIGSRAVQWYQHRAGQAPKLIIYNNQDRPPGIPERFSGSPDIDFGTTATLTITNVEAGDEATYYCHIWDSRRPTNWVFGGGTTLTVL
# B3: ePGT121.15.H6.L1 (antibody, V domains shown)
# VH: B2 VH with W113F, N124K
# VL: B2 VL
# What was measured:
# [1] = target: gp120 (isolate not stated; FIG. 19) (HIV)
# [2] = target: HIV Env of isolate Ce704809221_1B3 (HIV); experiment: cell-based or functional assay
# HIV Env of isolate CNE19 = HIV Env of isolate CNE19 (HIV); experiment: cell-based or functional assay
# [3] = target: HIV Env of isolate HIV-16055-2.3 (HIV); experiment: cell-based or functional assay
# [4] = target: HIV Env of isolate X1193_c1 (HIV); experiment: cell-based or functional assay
# HIV Env of isolate CNE5 = HIV Env of isolate CNE5 (HIV); experiment: cell-based or functional assay
Binder,EC50 (read off the curve) [1] [µg/mL],neutralization IC50 [2] [µg/mL],neutralization IC50 (HIV Env of isolate CNE19) [µg/mL],neutralization (Table 6 value) [3],neutralization IC50 [4] [µg/mL],neutralization (Table 6 value) (HIV Env of isolate CNE5)
B1,~0.6,0.025,0.008,,,
B2,,,,1.07,0.0001,
B3,,,,0.635,,2.72
